B1: H1H316P (antibody, V domains shown)
VH: EVQLVESGGGLVQPGGSLRLSCAASGFTFNNYAMNWVRQAPGKGLDWVSTISGSGGTTNYADSVKGRFIISRDSSKHTLYLQMNSLRAEDTAVYYCAKDSNWGNFDLWGRGTLVTVSS
VL: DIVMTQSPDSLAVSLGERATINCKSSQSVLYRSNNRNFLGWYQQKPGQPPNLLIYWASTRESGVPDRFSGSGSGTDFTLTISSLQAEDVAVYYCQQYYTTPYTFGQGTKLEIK
notes: Fully human mAb made in CHO cells; also called mAb316P
B2: H1M300N (antibody, V domains shown)
VH: EMQLVESGGGLVQPGGSLRLSCAASGFTFSSHWMKWVRQAPGKGLEWVANINQDGSEKYYVDSVKGRFTISRDNAKNSLFLQMNSLRAEDTAVYYCARDIVLMVYDMDYYYYGMDVWGQGTTVTVSS
VL: not shown
notes: Fully human version made in CHO cells

How the values were obtained:
[1] = molecular target: T1, Human PCSK9-myc-myc-his (human, UniProt Q8NBP7 31-692); assay: SPR, antigen captured at high density, pH 7.4, 25C
T1 construct: also called hPCSK9-mmh; hPCSK9

[2] = molecular target: T1, Human PCSK9-myc-myc-his; assay: SPR, mAb amine-coupled, 25C, pH 5.5
Source text: (§1) Briefly, mAbs were immobilized onto BIACORE™ CM5 sensor chips via amine coupling.

[3] = molecular target: T2, hPCSK9(D374Y)-mmh (human, UniProt Q8NBP7 31-692); assay: SPR, mAb amine-coupled, 25C, pH 5.5
T2 construct: also called hPCSK(D374Y)-mmh
Source text: as §1

[4] = molecular target: T3, cynomolgus monkey (Macaca fascicularis) PCSK9, myc-myc-his tagged (cynomolgus monkey (Macaca fascicularis), UniProt A8T662 31-692 (Macaca nemestrina entry), limits assumed); assay: SPR, mAb amine-coupled, 25C, pH 5.5
T3 construct: also called mfPCSK9-mmh; mfPCSK9
Source text: as §1

[5] = molecular target: T1, Human PCSK9-myc-myc-his; assay: competition ELISA vs EGF-AB-hFc, pH 7.2
Procedure: (§2) Briefly, hLDLR-ecto, hLDLR EGF-A-hFc or hLDLR EGF-AB-hFc, each at 2 μg/ml, was coated on a 96-well plate in PBS buffer overnight at 4° C., and nonspecific binding sites blocked with BSA. […] The equilibrated sample solutions were transferred to receptor or receptor fragment coated plates.

[6] = molecular target: T1, Human PCSK9-myc-myc-his; assay: SPR, mAb amine-coupled, 25C, pH 7.4
Source text: as §1

[7] = molecular target: T2, hPCSK9(D374Y)-mmh; assay: SPR, mAb amine-coupled, 25C, pH 7.4
Source text: as §1

[8] = molecular target: T3, cynomolgus monkey (Macaca fascicularis) …; assay: SPR, mAb amine-coupled, 25C, pH 7.4
Source text: as §1

[9] = molecular target: T4, mouse PCSK9, myc-myc-his tagged (mouse, UniProt Q80W65 35-694); assay: competition ELISA vs EGF-AB-hFc, pH 7.2
T4 construct: also called mPCSK9-mmh; mPCSK9
Procedure: as §2

[10] = molecular target: T5, tagged rhesus monkey (Macaca mulata) PCSK9 (rhesus monkey (Macaca mulata), UniProt A8T666 31-692); assay: competition ELISA vs EGF-AB-hFc, pH 7.2
T5 construct: also called mmPCSK9-mmh; mmPCSK9
Procedure: as §2

[11] = molecular target: T1, Human PCSK9-myc-myc-his; assay: competition ELISA vs hLDLR-ecto, pH 7.2
Procedure: as §2

[12] = molecular target: T1, Human PCSK9-myc-myc-his; assay: SPR, antigen captured at low density, pH 5.5, 25C
[13] = molecular target: T1, Human PCSK9-myc-myc-his; assay: competition ELISA vs hLDLR-ecto, pH 5.5
Procedure: as §2

[14] = molecular target: T6, Chimeric protein #1 (mPro-hCat-mC-term-mmh) (mouse; human, UniProt Q80W65 35-694); assay: SPR, mAb captured on anti-hFc, 100 nM antigen
T6 chain: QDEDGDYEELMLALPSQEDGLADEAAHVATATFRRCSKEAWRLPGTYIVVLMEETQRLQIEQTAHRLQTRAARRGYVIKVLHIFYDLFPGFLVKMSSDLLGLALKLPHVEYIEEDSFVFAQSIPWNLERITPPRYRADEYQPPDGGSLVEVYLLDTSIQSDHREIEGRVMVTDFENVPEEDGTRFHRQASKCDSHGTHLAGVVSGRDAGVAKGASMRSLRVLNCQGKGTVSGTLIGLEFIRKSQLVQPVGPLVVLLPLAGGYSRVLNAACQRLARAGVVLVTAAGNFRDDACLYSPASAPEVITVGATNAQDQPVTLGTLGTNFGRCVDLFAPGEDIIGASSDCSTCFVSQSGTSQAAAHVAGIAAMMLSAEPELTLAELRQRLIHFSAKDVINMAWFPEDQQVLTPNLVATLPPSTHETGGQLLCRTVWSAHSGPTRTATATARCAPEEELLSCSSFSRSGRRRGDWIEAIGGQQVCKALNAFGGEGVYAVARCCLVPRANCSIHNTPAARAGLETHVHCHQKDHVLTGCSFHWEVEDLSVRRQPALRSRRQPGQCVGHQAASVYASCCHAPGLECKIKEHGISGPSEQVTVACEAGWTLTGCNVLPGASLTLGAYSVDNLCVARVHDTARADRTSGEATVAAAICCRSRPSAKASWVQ
Procedure: Changes in RU due to the binding of each protein to the mAb surface was determined.

[15] = molecular target: T2, hPCSK9(D374Y)-mmh; assay: competition ELISA vs EGF-AB-hFc, pH 5.5
Procedure: as §2

[16] = molecular target: T4, mouse PCSK9, myc-myc-his tagged; assay: competition ELISA vs EGF-A-hFc, pH 7.2
Procedure: as §2

[17] = molecular target: T5, tagged rhesus monkey (Macaca mulata) …; assay: competition ELISA vs EGF-A-hFc, pH 7.2
Procedure: as §2

T5 sequence (A8T666 31-692 limits assumed): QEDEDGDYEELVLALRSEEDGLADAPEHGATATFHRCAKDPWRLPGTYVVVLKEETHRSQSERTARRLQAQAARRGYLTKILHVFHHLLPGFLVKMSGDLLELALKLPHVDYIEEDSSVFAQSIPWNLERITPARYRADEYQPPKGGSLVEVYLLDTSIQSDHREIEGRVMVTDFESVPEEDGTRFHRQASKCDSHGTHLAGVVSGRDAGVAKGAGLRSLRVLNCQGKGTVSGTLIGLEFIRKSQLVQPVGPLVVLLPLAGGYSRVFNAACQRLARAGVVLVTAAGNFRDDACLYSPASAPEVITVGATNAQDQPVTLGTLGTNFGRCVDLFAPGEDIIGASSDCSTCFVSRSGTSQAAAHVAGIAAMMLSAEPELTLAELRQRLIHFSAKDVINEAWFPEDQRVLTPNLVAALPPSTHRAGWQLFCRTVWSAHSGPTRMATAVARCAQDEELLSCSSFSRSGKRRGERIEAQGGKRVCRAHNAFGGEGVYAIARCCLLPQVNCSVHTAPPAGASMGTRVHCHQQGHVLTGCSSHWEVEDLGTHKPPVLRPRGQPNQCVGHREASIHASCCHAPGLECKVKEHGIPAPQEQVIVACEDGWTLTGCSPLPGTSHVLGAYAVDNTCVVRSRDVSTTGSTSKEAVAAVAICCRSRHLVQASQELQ
T3 sequence (A8T662 31-692 limits assumed): as the sequence (A8T666 31-692 limits assumed) above, with P607A, K639E counted along it

Binder	Kd [1] [nM]	T1/2 [1] [min]	Kd [2] [nM]	T1/2 [2] [min]	Kd [3] [nM]	T1/2 [3] [min]	Kd [4] [nM]	T1/2 [4] [min]	IC50 [5] [nM]	Kd [6] [nM]	T1/2 [6] [min]	Kd [7] [nM]	T1/2 [7] [min]	Kd [8] [nM]	T1/2 [8] [min]	IC50 [9] [nM]	IC50 [10] [nM]	IC50 [11] [nM]	Kd [12] [nM]	T1/2 [12] [min]	further results
B1	0.191	74	0.022	39	0.166	13	0.008	23	< 0.125	1.26	36	2.49	15	1.42	42	< 0.25	< 0.25	< 0.125	0.188	58	IC50 [13]: < 0.125 nM; change in RU [14]: 529 RU; IC50 [15]: 1.14 nM; IC50 [16]: < 0.25 nM; IC50 [17]: < 0.25 nM
B2	0.065	507	3.1	5	9.03	3	38.5	0.4	< 0.125	1.1	76	1.31	46	2.17	31	> 33	0.29	0.144	1.38	13	IC50 [13]: 1.49 nM; change in RU [14]: 243 RU; IC50 [15]: 3.94 nM; IC50 [16]: > 33 nM; IC50 [17]: 0.256 nM

Reference: patent publication US20130064834A1 (published 2013)
